Read-outs that look alike come from different tables or passages of the source.
How the values were obtained:
apoptotic cells = assay: Effect of glycoprotein synthesis/traffic inhibitors on glycoprotein expression in apoptotic cells; format: cell-based
[1] = tested on: murine leukemia L1210 cells; assay: Effect of cisplatin concentration on quantity of live cells
Description: Apoptosis of L1210 cells was induced by cisplatin (0.5 and 0.1 μg/ml, or 5.0 μg/ml, Ebewe, Austria) (56,57); apoptosis of L929 cells was induced by hyperthermia 43° C. […] Cell viability was controlled by trypan-blue (0.1% w/v solution) exclusion test, and cells were counted in hemocytometric chamber under light microscope.

L1210 cells = format: binding, murine
[2] = tested on: murine leukemia L1210 cells; format: cell-based
Description: Mixtures were resuspended once and 10 μl were transferred on slide glass, and examined under microscope.
Mannose-specific PMRL and PSL lectins caused agglutination of normal cells in concentrations of 625 and 1000 μg/ml, respectively and agglutination of apoptotic cells in concentrations of 78 and 125 μg/ml, respectively (FIG. 11). Thus, lectin concentration needed for agglutination of apoptotic cells was approximately equal to and/or equal to ⅛ (625 against 78 and 1000 against 125) of that needed to agglutinate the non-apoptotic cells. It is believed that there is an 8-fold increase in mannose-containing glycoconjugate expression in the apoptotic cells comparing to intact cells. Similar results were obtained for galactose-specific lectins.

[3] = tested on: L929, L1210, MCF-7 (wt), MCF-7 (DOX/R), and Jurkat cell lines; assay: Lectinocytochemical analysis, summary over the studied cell lines; format: binding
[4] = tested on: human adenocarcinoma cells of MCF-7 line; assay: Lectinocytochemical analysis with HRP-labeled lectins; format: binding
Description: (§1) Lectin cytochemical analysis was conducted as described previously by Herrington & Mc Gee (Herrington C S, McGee JO'D. Diagnostic molecular pathology. Oxford: IRL Press; 1992), with some modifications. Cell smears were fixed in a mixture of acetone, methanol, and formalin (19:19:2) for 90 s at room temperature and then air dried. Smears were washed twice with Tris saline buffer (TSB) for 2 min and incubated with HRP-labeled lectins (50 μg/ml) for 1 h at room temperature or overnight at 4° C. If necessary, the appropriate sugar inhibitor (0.1 M solution) was added to the incubation mixture. Smears were washed twice with TSB for 10 min and incubated with 0.5 mg/ml of 3,3′-diaminobenzidin (Sigma Chemical Co.) and 4 μl/ml of H2O2 in TSB for 5 min. In some experiments a NiCl2 solution was added to the incubation mixture (final concentration, 1 mg/ml) to improve cell contrast.
(§2) Alternatively, smears were washed in distilled water, air dried and photographed. Densitometric analysis was performed on an AMD-based IBM PC computer using ImageJ (Wayne Rasband, National Institutes of Health, USA) program support and the UTHSCSA ImageTool program (University of Texas Health Science Center in San Antonio, Tex.).

[5] = tested on: human leukemia Jurkat cells; assay: as above; format: binding
Description: as §1, §2

[6] = tested on: murine fibroblasts of L929 line; assay: as above; format: binding
[7] = tested on: human lung carcinoma A549 cells; assay: Fluorescent microscopy with fluorescent lectin conjugate; format: binding

O=CC[C@@H](O)[C@H](O)[C@H](O)CO [2-deoxy-D-glucose]
effect on the increase in expression of α-D-mannose- and β-D-galactose-containing glycoprotein(s) in apoptotic cells (apoptotic cells): did not diminish

N.N.[Cl][Pt][Cl] [cisplatin, cis-diamminodichloroplatinum]
effect of increasing concentration on live cell number [1]: decrease in live cell number

OC[C@H]1O[C@H](O[C@H]2[C@H](O)[C@@H](O)C(O)O[C@@H]2CO)[C@H](O)[C@@H](O)[C@H]1O (stereo partly drawn) [lactose, 4-O-(α-D-galactopyranosyl)-D-glucopyranose, reference compound]
inhibition of lectin binding by specific sugar inhibitor (L1210 cells; α-MMan for PSL, lactose for RCA-120): substantial

CC[C@@]1([C@@H]2O[C@@H]([C@H]3O[C@@](O)(CO)[C@H](C)C[C@@H]3C)C[C@@H]2C)CC[C@H]([C@]2(C)CC[C@]3(C[C@H](O)[C@@H](C)[C@@H]([C@@H](C)[C@@H](OC)[C@H](C)C(=O)O)O3)O2)O1 [monensine]
effect on the increase in expression of α-D-mannose- and β-D-galactose-containing glycoprotein(s) in apoptotic cells (apoptotic cells): did not diminish

CO[C@H]1O[C@H](CO)[C@@H](O)[C@H](O)[C@@H]1O [α-MMan, α-Methyl-D-mannopyranoside, reference compound]
inhibition of lectin binding by specific sugar inhibitor (L1210 cells): almost absolute abolishment

tunicamycin
effect on the increase in expression of α-D-mannose- and β-D-galactose-containing glycoprotein(s) in apoptotic cells (apoptotic cells): did not diminish

B1: PSL: Pisum sativum lectin, α-D-mannose-specific (protein, UniProt P02867 31-217; P02867 218-275, looked up)
Lectin beta chain: TETTSFLITKFSPDQQNLIFQGDGYTTKEKLTLTKAVKNTVGRALYSSPIHIWDRETGNVANFVTSFTFVINAPNSYNVADGFTFFIAPVDTKPQTGGGYLGVFNSAEYDKTTQTVAVEFDTFYNAAWDPSNRDRHIGIDVNSIKSVNTKSWKLQNGEEANVVIAFNAATNVLTVSLTYPNSLEEEN
Lectin alpha chain: VTSYTLSDVVSLKDVVPEWVRIGFSATTGAEYAAHEVLSWSFHSELSGTSSSKQAADA
lectin concentration needed for agglutination of apoptotic cells as fraction of that needed for non-apoptotic cells ([2]; L1210 cells): ⅛
minimal lectin concentration needed to induce noticeable agglutination ([2]; apoptotic L1210 cells): 125 µg/mL
minimal lectin concentration needed to induce noticeable agglutination ([2]; normal L1210 cells): 1000 µg/mL
lectin binding with apoptotic cells compared to non-apoptotic cells [3]: increased bidding
lectin binding, apoptotic vs non-apoptotic cells [4]: increase in binding
lectin binding, apoptotic vs normal cells [4]: statistically insignificant
lectin binding, apoptotic vs non-apoptotic cells [5]: stronger
binding by apoptotic cells compared with normal cells (L1210 cells): much better bound
lectin binding of cells pretreated 2 h with non-labeled lectin vs untreated, stained with corresponding HRP-labeled lectin (L1210 cells): decrease
lectin binding, apoptotic vs normal cells ([6]; L929): significantly stronger binding
staining, apoptotic vs non-apoptotic cells ([6]; L929, etoposide 10 μM, 72 h): more intensive staining
lectin binding, apoptotic vs non-apoptotic cells ([6]; L929, hyperthermia 43° C., 3h, detached by rubbing): increased binding
lectin binding, apoptotic vs intact cells ([6]; L929, hyperthermia, trypsinization): significantly stronger

B2: FITC-PSL: FITC-labeled PSL lectin conjugate (conjugate, UniProt P02867 31-217; P02867 218-275, looked up)
Lectin beta chain: B1 Lectin beta chain
Lectin alpha chain: B1 Lectin alpha chain
modifications: FITC label
notes: FITC-labeled PSL lectin conjugate
binding of labeled lectin compared to untreated cells or cells with onset of apoptosis ([7]; A549, 5 μg/ml cisplatin 24 hours, apoptosis in almost all cells (FIG. 18 lower row)): significantly higher
binding of labeled lectin compared to untreated cells ([7]; A549, 5 μg/ml cisplatin 24 hours, beginning of apoptotic cell death (FIG. 18 middle row)): significantly stronger
binding of labeled lectin ([7]; untreated A549 cells): did not bind

Reference: US20090053740A1, “AGGLUTINATION-BASED METHOD FOR FAST DETECTION, ISOLATION AND QUANTIFICATION OF APOPTOTIC CELLS” (CEDARS-SINAI MEDICAL CENTER, priority 2005, published 2009)
